In patent publication US20230047413A1 (Janssen / Centocor, published 2023):

How the values were obtained:
[1] = biological target: T1, tau phospho-peptide of the direct ELISA of Example 11; assay: direct ELISA on plate-coated tau phospho-peptide, Fabs
T1 construct: also called pT217 peptide; pT212/pT217 peptide
Method: Binding to tau phospho-peptide was analysed by ELISA where peptide (10 ng/mL) was directly coated to the plate overnight. […] After incubation with antibodies, plates were washed and 50 μL per well of HRPO labelled anti-Fab antibody (Jackson Immunoresearch laboratories) (diluted 1:10000 in blocking buffer). After another washing step detection was performed with “One step” TMB (Thermo Scientific) according to the manufacturers' instructions. Plates were analysed in EnVision® 2102 Multilabel Reader (Perkin Elmer, Waltham, Mass., USA). Binding curves were generated using GraphPad Prism7.0 software.

[2] = biological target: T2, Peptide-7 (human, phosphothreonine 212, phosphoserine 214 (tau 2N4R numbering); SCBiot and dPEG4 at the N-terminus; amide at the C-terminus); assay: SPR ProteOn, peptide captured, Fab as analyte; Peptide-7, phosphorylated at 212/214
Method: (§1) The binding affinity of PT3 Fab towards each of the fourteen tau phosphopeptides shown in Table 6 was assessed by surface plasmon resonance (SPR) using a Bio-Rad ProteOn XPR36. Peptides were synthesized by standard chemical methods (New England Peptide) with short-chain biotin and a PEG4 moiety at the N-terminus. Biotinylated peptide was captured on a neutravidin-coated NLC biosensor chip and PT3 Fab was flowed over the surface to measure kinetic parameters.
(§2) All experiments were performed at 25° C. using phosphate buffered saline, pH 7.4, 0.005% Tween 20 (PBST) as both running buffer and sample dilution buffer. Prior to running samples, the NLC chip was conditioned by running PBST over the chip surface for 1 h. Approximately 5-10 RU of peptide was captured on the chip surface by diluting peptide to 10 ng/mL in PBST and injecting over the flow channels at 30 μL/min for 100 s. Serial dilutions of PT3 Fab (1.1-90 nM) were analyzed and, with the exception of Peptide-8, each concentration was measured in duplicate. After capture of peptides, the antibody titration was injected at 60 μL/min for 3 minutes (association phase), followed by 300 s of buffer only (dissociation phase).
(§3) The data were double referenced by subtraction of the interspot response and the curves generated by the buffer-only injection. […] The data were analyzed using a simple Langmuir 1:1 binding model.

[3] = biological target: T3, Peptide-2 (human, phosphothreonine 212, phosphothreonine 217 (tau 2N4R numbering); short chain biotin (SCBiot) and dPEG4 at the N-terminus; amide at the C-terminus); assay: SPR ProteOn, peptide captured, Fab as analyte; range of n=2; lower end of n=2 range
T3 construct: also called pT212/pT217-tau peptide (Peptide-2)
Method: as §1, §2
(§4) The data were double referenced by subtraction of the interspot response and the curves generated by the buffer-only injection. The chip surface was regenerated using a single injection of 0.85% phosphoric acid at 30 μL/min for 100 s contact time, followed by four injections of running buffer before the next antibody titration injection. The data processing and kinetic analysis were done using the instrument software. The data were analyzed using a simple Langmuir 1:1 binding model.

[4] = biological target: Peptide-4 (human, phosphoserine 210, phosphothreonine 217 (tau 2N4R numbering); SCBiot and dPEG4 at the N-terminus; amide at the C-terminus); assay: as above
Method: as §1, §2, §4

[5] = biological target: Peptide-6 (human, phosphothreonine 217 (tau 2N4R numbering); SCBiot and dPEG4 at the N-terminus; amide at the C-terminus); assay: as above
Method: as §1, §2, §4

[6] = biological target: T2, Peptide-7; assay: as above
Method: as §1, §2, §4

[7] = biological target: T2, Peptide-7; assay: SPR ProteOn, peptide captured, Fab as analyte; range of n=2; Peptide-7 (pT212/pS214); lower end of n=2 range
Method: as §1, §2, §3

[8] = biological target: T4, Peptide-1 (human, phosphothreonine 212, phosphoserine 214, phosphothreonine 217 (tau 2N4R numbering); short chain biotin (SCBiot) and dPEG4 at the N-terminus; amide at the C-terminus); assay: SPR ProteOn, peptide captured, Fab as analyte; range of n=2; Peptide-1 (pT212/pS214/pT217); lower end of n=2 range
T4 construct: also called tau peptide phosphorylated at T212/S214/T217
Method: as §1, §2, §3

[9] = biological target: T3, Peptide-2; assay: SPR ProteOn, peptide captured, Fab as analyte; range of n=2; Peptide-2 (pT212/pT217); Table 12 run; lower end of n=2 range
Method: (§5) A subset of HFA-PT3 monoclonal antibody variants, selected based on biophysical characterization and ELISA binding to PHF, were analyzed by Surface Plasmon Resonance (SPR) with a ProteOn XPR36 for binding to the following phosphopeptides: pT212/pT217-tau peptide (Peptide-2, SEQ ID NO: 48) and pT212-tau peptide (Peptide-8, SEQ ID NO: 54). All experiments were performed at 25° C. using PBST, pH 7.4, (Bio-Rad Cat#176-2720) as both running buffer and sample dilution buffer.
(§6) Fab/peptide binding. Biotinylated peptide was captured on a neutravidin-coated NLC biosensor chip pre-conditioned with PBST, and Fab was flowed over the surface to measure kinetic parameters. Approximately 5-10 RU of peptide was captured on the chip surface by diluting peptide to 10 ng/mL in PBST and injecting over the flow channels at 30 μL/min for 100 s. Serial dilutions of PT3 Fab (1.1 nM to 90 nM) were injected at 60 μL/min for 3 minutes (association phase), followed by 300 s of buffer only (dissociation phase).
(§7) Data were double referenced by subtraction of the interspot response, and the curves generated by the buffer only injection. The chip surface was regenerated with 0.85% phosphoric acid, followed by PBST injection before the next antibody titration injection. Data processing and analysis were performed using instrument software. The data were fit using a simple Langmuir 1:1 binding model.

[10] = biological target: T3, Peptide-2; assay: SPR ProteOn, peptide captured, Fab as analyte; range of n=2; Peptide-2 (pT212/pT217); Table 12 run; upper end of n=2 range
Method: as §5, §6, §7

T2 sequence (peptide, as listed by the source): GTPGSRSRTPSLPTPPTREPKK

EC50 (read off the curve) [1]: ~200 pM
Kd [2]: 13.5 nM
kon [3]: 546000 M⁻¹ s⁻¹
koff [4]: 0.00619 s⁻¹
kon [4]: 922000 M⁻¹ s⁻¹
koff [5]: 0.00606 s⁻¹
kon [5]: 524000 M⁻¹ s⁻¹
koff [6]: 0.00549 s⁻¹
kon [6]: 357000 M⁻¹ s⁻¹
Kd [7]: 11.3 to 15.7 nM
Kd [8]: 0.14 to 0.38 nM
Kd [9]: 0.0738 to 0.101 nM
Kd [10]: 0.0738 to 0.101 nM
B1: PT3 Fab (B187) (Fab, V domains shown)
VH: EVKLVESGGDLVKPGGSLKLSCAASGFTFSSYAMSWVRQNPEKRLEWVASISKGGNTYYPNSVKGRFTISRDNARNILYLQMSSLRSEDTALYYCARGWGDYGWFAYWGQVTLVTVSA
VL: DIKMTQSPSSMYASLGERVTITCKASQDINRYLNWFQQKPGKSPKTLIYRANRLLDGVPSRFSGSGSGQDYSLTISSLDYEDMGIYYCLQYDEFPLTFGDGTKLELK
notes: Chimeric Fab: mouse variable regions, human IgG1/kappa constant region, 6xHis tag at the C-terminus of the heavy chain; also called mouse parental Fab of PT3
